Earlier results in US20040253306A1, “Sustained release formulations for nifedipine dextromethorphan, and danazol” (priority 2001, published 2004).

Details: oral; free vs liposomes having ceramides

In the case of superoxide dismutase, the bioavailability is given as 14%.
